According to publication PMC8131916:

Tests used:
[1] = biological target: MM_0014, cis-prenyltransferase from Methanosarcina mazei (tag-free) (Methanosarcina mazei); experiment: crystal structure; substrate-free MM_0014, hanging drop, Index No. 64 reagent with glycerol 3:1, 25 °C; space group C222_(1), two protein molecules per asymmetric unit; the same crystals soaked with IPP or DMAPP
[2] = biological target: MM_0014, cis-prenyltransferase from Methanosarcina mazei (tag-free) (Methanosarcina mazei); experiment: crystal structure; MM_0014 cocrystallised with FPP and MgCl2 (co-FG), Index No. 89 reagent with glycerol 3:1, 20 °C; space group P2_(1)2_(1)2_(1), eight protein molecules per asymmetric unit; the same crystals soaked with DMAPP

- stoichiometry N [1]: 2
- stoichiometry N [2]: 2
Substance: MM_0014, cis-prenyltransferase from Methanosarcina mazei (tag-free) (enzyme)
